The text below walks through data of publication PMC4592220, “Geminivirus Activates [sequence] LEAVES 2 to Accelerate Cytoplasmic DCP2-Mediated mRNA Turnover and Weakens RNA Silencing in Arabidopsis” (PLoS Pathogens, 2015).

The chains are these.
B2: GST-AS2 (… LEAVES 2) (natural protein)
chain: MASSSTNSPCAACKFLRRKCQPECVFAPYFPPDQPQKFANVHKVFGASNVTKLLNELHPSQREDAVNSLAYEADMRLRDPVYGCVGVISLLQHQLRQLQIDLSCAKSELSKYQSLGILAATHQSLGINLLAGAADGTATAVRDHYHHHQFFPREQMFGGLDVPAGNNYDGGILAIGQITQFQQPRAAAGDDGRRTVDPS
notes: full-length cDNA

Experiment [1] has as its target B2. The experiment in a line: pull-down; 2 ug of GST/MBP/His/His-SUMO fusion proteins; binding buffer 50 mM Tris-HCl pH 7.5, 100 mM NaCl, 0.25% Triton X-100, 35 mM beta-mercaptoethanol, 2 h at 4 C, then glutathione sepharose 4B overnight; 6 washes; Western blot with anti-His, anti-GST or anti-MBP. The conditions noted are these: both partners purified. (In general: In western blotting, separated proteins are transferred to a membrane and probed.)

The target of experiment [2] is T1, DCP2, recombinant (Arabidopsis thaliana, UniProt Q8GW31 1-373).
T1 construct: mRNA decapping enzyme DCP2, Arabidopsis; full-length cDNA
T1 sequence: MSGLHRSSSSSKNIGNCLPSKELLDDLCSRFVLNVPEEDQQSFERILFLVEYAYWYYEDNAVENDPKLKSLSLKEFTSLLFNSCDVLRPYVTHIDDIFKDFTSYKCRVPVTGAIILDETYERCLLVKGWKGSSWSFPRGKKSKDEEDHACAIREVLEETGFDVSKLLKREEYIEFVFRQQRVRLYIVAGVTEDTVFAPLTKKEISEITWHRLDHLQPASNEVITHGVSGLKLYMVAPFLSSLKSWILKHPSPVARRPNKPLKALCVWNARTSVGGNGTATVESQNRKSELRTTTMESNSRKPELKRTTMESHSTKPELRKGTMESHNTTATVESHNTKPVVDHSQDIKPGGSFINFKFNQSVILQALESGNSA
Described as above. The conditions noted are these: both partners purified.

B1: His-AS2 (… LEAVES 2) (natural protein)
chain: MASSSTNSPCAACKFLRRKCQPECVFAPYFPPDQPQKFANVHKVFGASNVTKLLNELHPSQREDAVNSLAYEADMRLRDPVYGCVGVISLLQHQLRQLQIDLSCAKSELSKYQSLGILAATHQSLGINLLAGAADGTATAVRDHYHHHQFFPREQMFGGLDVPAGNNYDGGILAIGQITQFQQPRAAAGDDGRRTVDPS
notes: full-length cDNA; The methods say the yeast SUMO tag was used to improve AS2 solubility; also called WT AS2
B1: in experiment [1], the binding result is “binds”.
On to B2, for which the binding result in experiment [2] is on record as “binds”.
